Paper PMC9039348

Biological target: microtubules (MTs) polymerised from porcine brain tubulin, taxol-stabilised (porcine) (UniProt P02550)
Assay: co-sedimentation; GST-rMap7D2 proteins incubated with 0.4 mg/ml taxol-stabilised MTs in polymerization buffer (80 mM PIPES/NaOH pH 6.8, 1 mM MgCl2, 1 mM EGTA, 1 mM GTP) with 15 μM taxol, 20 min at 37°C; centrifuged at 100,000g for 30 min at 37°C through a 50% sucrose cushion; supernatant and pellet by SDS-PAGE, CBB staining, densitometer; Scatchard analysis

- Kd: 600 nM
- stoichiometry N (scale: tubulin α/β heterodimers per GST-rMap7D2 molecule): 10
Substance: GST-rMap7D2 (full length) (from UniProt D4A4L4 1-763) (natural protein)
